Results as given in paper PMC8244865, “Recruitment of phospholipase Cγ1 to the non-structural membrane protein pK15 of Kaposi Sarcoma-associated herpesvirus promotes its Src-dependent phosphorylation” (PLoS Pathogens, 2021).

B1: pK15 CT^WT: pK15 cytoplasmic tail fused to GST at its N-terminal end, phosphorylated in vitro by Src (protein)
chain: SQLLNEVELQEVNRDPPNVFGYASILVSGAEESREPSPQPDQSGMSILRVDGGSAFRIDTAQAATQPTDDLYEEVLFPRN
modifications: tyrosine-phosphorylated in vitro by Src; sites not stated for this construct; left off: GST, N-terminal, kept

Legend:
Assay type in all cases: binding
[1] = system: PLCγ1 nSH2 domain (in tSH2 aa 545–772); assay: crystal structure with truncated PLCγ1 tSH2, nSH2 site; conditions: truncated tSH2 (aa 545–772), resolution 2.1 Å
Procedure: (§1) A shortened version of the PLCγ1 tSH2 domain (aa 545–772) lacking the linker peptide connecting the PLCγ1 cSH2 and SH3 domains (see Results section) was cloned into a pET28a vector carrying an N-terminal His Tag and a SUMO sequence. Expression was carried out in E. coli and the protein was purified to homogeneity as described above. His-Tag and SUMO were proteolytically removed using SUMO protease (SIGMA) following the manufacturer’s instructions, and the cleaved protein purified on a HisTrap column. Fractions containing cleaved protein were further purified by size exclusion chromatography (SEC) using a Superdex 75 26/600 column (GE Healthcare) equilibrated with 50mM Tris pH7.5, 150mM NaCl and 1mM TCEP buffer. The purified protein in SEC buffer was added to lyophilized phosphorylated 12mer pK15 peptide (DDLpYEEVLFPRN) in a 1:8 molar ratio (Protein: peptide) at a final concentration of 3mg/ml of peptide and 7.5mg/ml protein. Crystals were grown at 293 K using the sitting-drop vapor diffusion method in drops containing 1μl protein solution mixed with 1 μL reservoir solution containing 30% PEG 4000, 0.1M TrisHCl pH 8.5 and 0.2M sodium acetate. The crystals were flash frozen in the mother liquor containing 30% ethylene glycol and diffraction data were collected at P13 at DESY-Hamburg. Data were processed, scaled and reduced with XDS [75], Pointless and programs from the CCP4 suite. […]

[2] = system: PLCγ1 cSH2 domain (in tSH2 aa 545–772); assay: crystal structure with truncated PLCγ1 tSH2, cSH2 site; conditions: truncated tSH2 (aa 545–772), resolution 2.1 Å
Procedure: as §1

[3] = system: PLCγ1 SA domain; assay: AlphaLISA, PLCγ1 SA; conditions: phosphorylated by 2xStrep-Src, 300 nM each protein, 1 h room temperature, 615 nm, at least two independent experiments
Procedure: (§2) Fig 4 The PLCγ1 cSH2 domain is required for the binding of PLCγ1 to phosphorylated pK15 in vitro and may serve as a dominant-negative inhibitor. GST-fused pK15 cytoplasmic tail WT (A), or its truncated mutant N2 [51] (B), were phosphorylated in vitro by 2xStrep-Src and an AlphaLISA was performed with the indicated His-tagged fragments of PLCγ1. Mean and standard deviation from at least two independent experiments with two technical replicates each are depicted. GST fusion proteins of the N1 (C) or N2 (D) truncation mutants of the pK15 cytoplasmic tail were phosphorylated in vitro by 2xStrep-Src and their interaction with recombinant purified PLCγ1 tSH2 (tandem SH2) or SA (γ-specific array) domains was measured by AlphaLISA in the presence of increasing concentrations (300 nM, 600 nM, 900 nM, 1200 nM) of the purified PLCγ1 cSH2. […] After 48h lysates were collected and analysed by Western blot using an antibody to PLCγ1 pY^783 to assess the level of PLCγ1 phosphorylation. (F) The intensities of the pPLCγ1 bands shown in panel E were quantified by densitometry, normalized to the values obtained with the empty vector (EV) in the presence of pK15, and plotted as relative values. […]
(§3) His-tagged PLCγ1 (SA, tSH2 or the isolated SH2 domains) was incubated at room temperature with GST-tagged K15P or its mutants for 1 hour. […] Emission at 615 nm was detected on BioTek Synergy 2 plate reader.

[4] = system: PLCγ1 tSH2 domain; assay: AlphaLISA, PLCγ1 tSH2; conditions: phosphorylated by 2xStrep-Src, 300 nM each protein, 1 h room temperature, 615 nm, at least two independent experiments
Procedure: as §2, §3

| Molecule | binding site occupancy in crystal structure [1] | binding site occupancy in crystal structure [2] | interaction (AlphaLISA) [3] | interaction (AlphaLISA) ([3]; listed as pK15 CT^N2) | interaction (AlphaLISA) [4] | interaction (AlphaLISA) ([4]; listed as pK15 CT^N2) |
| --- | --- | --- | --- | --- | --- | --- |
| DDLpYEEVLFPRN [pK15 12mer, phosphorylated peptide representing the last 12 amino acids of pK15 CT (DDLp…)] | at lower occupancy peptide binding to the nSH2 domain was also observed | unambiguously bound to the PLCγ1 cSH2 domain |  |  |  |  |
| B1 |  |  | does interact with the PLCγ1 SA | only bound weakly to PLCγ1 SA | bound more strongly to the PLCγ1 tSH2 domain than to the PLCγ1 SA domain | binds strongly to the PLCγ1 tSH2 domain |
